The source of these data is patent US8962819B2, “Anti-C5 alpha antibodies” (Adienne S.A., priority 2002, dated 2015).

For assay [1], the system named is binding of the TS-A12/22 antibody to C5. Kind of assay: Competitive ELISA on solid-phase C5 after pre-incubation of TS-A12/22 with peptide. The arrangement: species or system human. As to conditions: 800 ng CS5 or 3.5 μg C5a fragment; highest concentrations used. As for the experimental part:
Binding of the antibody, pre-incubated in different conditions, was assessed by immuno-enzymatic assay using C5 on solid phase.
This peptide corresponds to region 727-744 of the mature protein and comprises the cleavage site of C5 convertase (indicated by the arrow) between […] according to SwissProt numbering for human C5 (SEQ ID P01031). The peptide was used in a competitive ELISA assay on the C5 protein on solid phase. Before binding to the solid phase, the TS-A12/22 antibody was pre-incubated with the PSA-18 peptide, corresponding to amino acids 727-744 of the C5 component, or with an unrelated peptide of sequence […] (SEQ ID NO:16 of sequence listing) corresponding to a fibronectin derived peptide termed CS5.
On the technique in general: In an ELISA, binding on a coated surface is turned into a signal by an enzyme label.

Assay [2] addresses T1, factor C5 (Homo sapiens, UniProt P01031).
T1 construct: C5 alpha and beta subunits were obtained by incubating 50 μg of C5; purchased Quidel
Nature of the assay: Surface plasmon resonance (BIACORE 2000) on C5 immobilized on chip. Format: binding. The conditions noted are these: read-out: KD calculated. As for the experimental part:
The binding affinity of the Tsa-12 antibody, purified by means of FPLC on Superdex 75 (Pharmacia), for factor C5 was measured by means of BIACORE™ 2000 (a system that generates unique data on the interactions between proteins and other molecules). The microchip (CM5, Biacore) was prepared by direct conjugation of the C5 antigen with amines (20 μg/ml in 10 mM Sodium Acetate pH 4.5). The final level of immobilisation turned out to be approximately 1000 RU (Resonance Units). Association and dissociation of antibody molecules from the bio-chip were measured using an optical detection system (Surface Plasmon Resonance). The analysis was carried out at 25° C., at a flow of 15 μl/min, using 4 different scFv concentrations in the range comprised between 100-300 nM, in PBS, 0.005% P20 (Biacore). The binding curves were interpolated 1:1 according to the model of Langmuir, using the dedicated software termed BIAevaluation (version 3.5) with correction for the mass transfer. In order to increase the affinity, the TS-A12 antibody was subjected to substitution (“shuffling”) of the VL light chains. For this purpose the phagemid DNA was cut with BssHII and SaII to excise the VL region. This region was substituted with all the repertoire of VL chains of a preimmune library (Sblattero, D., and Bradbury A., 2000, Nat. Biotechnol. 18:75) that was prepared with same enzymes. […]

Assay [3] concerns the target T2, C5 (Homo sapiens, UniProt P01031).
T2 construct: C5 alpha and beta subunits were obtained by incubating 50 μg of C5; purchased Quidel
Nature of the assay: ELISA of C5a released after cleavage of C5 by C5 convertase. Format: biochemical. As to conditions: FIG. 1A, classical pathway. As for the experimental part:
(§1) Panel A) The ELISA assay measures the amount of C5a fragment released in the supernatant after enzymatic cleavage of C5, using antibodies anti-C5 as described in example 6. […] Sheep erythrocytes sensitised with antibodies and coated until the C3b (EAC1-3b) complement step were added to the mixture of TS-A12 or TS-A12/22 and C5, and the mixture was further incubated for 30 minutes at 37° C. (panel B).
(§2) The obtained anti-C5 scFv fragments were further characterised for their ability to inhibit the hemolytic activity of C5 or, in other words, to block conversion of the C5 component to C5a. […] At the end of this procedure, cell lysis was measured as percentage of the control of total lysis in distilled H2O (see FIG. 1, panel B). The inhibition of C5a and TCC production by the scFv TS-A12 and TS-A12/22 was measured by means of ELISA using the monoclonal antibody 17/5 as the capture antibody and antibody G25/2 as detection antibody according to what has been described in Opperman et al., 1991, Complement Inflamm. […] The presence of TCC was measured using antibody aE11 as the capture antibody and a biotinylated anti-C5 antibody (SIGMA-ALDRICH®) followed by alkaline phosphatase-conjugated streptavidin, as described by Tedesco et al. (1997, J Exp. Med. 185:1619).

Assay [4] concerns the target T2, C5. Kind of assay: Haemolytic assay / TCC ELISA with EAC1-3b sheep erythrocytes and C5 depleted serum. It counts as biochemical. As to conditions: FIG. 1B. How it is done:
as §1
Sheep erythrocytes (SBRC: Sheep red blood cells) were sensitised with sub-agglutinating amounts of rabbit IgM (EA). […]
as §2

“Also recorded” adds a separate entry of the source.

binding of the TS-A12/22 antibody to C5, sequence (P01031 678-1676 partner limits assumed, one chain of several): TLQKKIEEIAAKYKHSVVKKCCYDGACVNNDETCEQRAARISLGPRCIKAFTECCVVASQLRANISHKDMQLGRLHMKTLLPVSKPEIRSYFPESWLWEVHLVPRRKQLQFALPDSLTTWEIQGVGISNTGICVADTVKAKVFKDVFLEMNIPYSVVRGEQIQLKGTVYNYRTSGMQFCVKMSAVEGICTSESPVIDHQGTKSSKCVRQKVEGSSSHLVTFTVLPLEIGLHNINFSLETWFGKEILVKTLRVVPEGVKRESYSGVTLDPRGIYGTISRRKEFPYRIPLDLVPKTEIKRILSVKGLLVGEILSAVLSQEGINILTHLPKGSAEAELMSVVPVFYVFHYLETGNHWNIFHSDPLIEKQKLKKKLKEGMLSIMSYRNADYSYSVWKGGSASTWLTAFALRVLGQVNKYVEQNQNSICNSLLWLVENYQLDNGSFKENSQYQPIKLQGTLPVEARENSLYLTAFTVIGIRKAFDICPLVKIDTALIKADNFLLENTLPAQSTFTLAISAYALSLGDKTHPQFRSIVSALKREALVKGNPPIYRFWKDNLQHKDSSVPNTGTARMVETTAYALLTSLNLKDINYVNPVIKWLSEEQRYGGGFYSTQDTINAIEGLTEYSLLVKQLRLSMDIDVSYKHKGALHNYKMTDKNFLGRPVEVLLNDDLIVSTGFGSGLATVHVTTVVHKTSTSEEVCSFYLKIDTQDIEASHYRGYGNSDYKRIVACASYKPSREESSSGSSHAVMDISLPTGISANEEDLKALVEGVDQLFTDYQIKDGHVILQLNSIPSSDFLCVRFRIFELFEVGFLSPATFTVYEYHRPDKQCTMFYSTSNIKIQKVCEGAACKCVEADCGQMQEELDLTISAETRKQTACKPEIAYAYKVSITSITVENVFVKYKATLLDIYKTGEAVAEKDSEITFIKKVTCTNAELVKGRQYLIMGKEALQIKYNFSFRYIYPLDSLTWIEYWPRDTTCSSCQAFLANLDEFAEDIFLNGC
binding of the TS-A12/22 antibody to C5, sequence (P01031 19-673 partner limits assumed, one chain of several): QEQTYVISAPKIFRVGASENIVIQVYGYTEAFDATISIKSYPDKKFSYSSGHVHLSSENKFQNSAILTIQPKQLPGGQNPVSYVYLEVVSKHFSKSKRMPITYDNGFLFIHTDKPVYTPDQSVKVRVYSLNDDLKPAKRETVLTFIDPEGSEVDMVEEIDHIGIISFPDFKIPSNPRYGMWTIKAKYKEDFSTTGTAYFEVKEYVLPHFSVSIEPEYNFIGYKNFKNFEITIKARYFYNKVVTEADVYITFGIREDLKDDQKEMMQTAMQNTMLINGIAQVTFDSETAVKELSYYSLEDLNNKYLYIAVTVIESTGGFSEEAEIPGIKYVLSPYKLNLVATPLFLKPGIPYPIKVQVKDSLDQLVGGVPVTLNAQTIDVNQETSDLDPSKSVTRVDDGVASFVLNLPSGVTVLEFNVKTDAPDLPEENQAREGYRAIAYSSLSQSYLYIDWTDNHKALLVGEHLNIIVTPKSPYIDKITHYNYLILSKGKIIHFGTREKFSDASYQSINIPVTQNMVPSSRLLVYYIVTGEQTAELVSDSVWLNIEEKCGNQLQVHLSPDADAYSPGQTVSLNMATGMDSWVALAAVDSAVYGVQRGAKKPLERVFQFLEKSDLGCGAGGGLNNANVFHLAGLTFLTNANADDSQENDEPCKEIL
T2 sequence (P01031 678-1676 limits assumed): as the sequence (P01031 678-1676 partner limits assumed, one chain of several) above
T2 sequence (P01031 19-673 partner limits assumed): as the sequence (P01031 19-673 partner limits assumed, one chain of several) above
T1 sequence (P01031 678-1676 limits assumed): as the sequence (P01031 678-1676 partner limits assumed, one chain of several) above
T1 sequence (P01031 19-673 partner limits assumed): as the sequence (P01031 19-673 partner limits assumed, one chain of several) above

“GEEIQIGHIPREDVDYHLYP (PEPTIDE (1)..(20) fibronectin derived peptide; listed as Homo sapiens) [CS5, unrelated fibronectin derived peptide]”: the “inhibition of binding of TS-A12/22 to C5 (in words)” value in assay [1] is on record as “ineffective; also recorded: NO inhibition”.

B1: C5A: C5a fragment; human recombinant C5a component purchased from SIGMA-ALDRICH (protein, UniProt P01031 678-751, looked up)
C5a anaphylatoxin: TLQKKIEEIAAKYKHSVVKKCCYDGACVNNDETCEQRAARISLGPRCIKAFTECCVVASQLRANISHKDMQLGR
modifications: C5a anaphylatoxin
notes: C5a fragment; human recombinant C5a component purchased from SIGMA-ALDRICH
For the molecule B1, the “inhibition of binding of TS-A12/22 to C5 (in words)” value in assay [1] is on record as “NO inhibition”.

B2: TS-A12: human anti-C5 single chain scFv antibody clone selected from a naive phage library (protein, listed as Homo sapiens)
scFv: DIRMTQSPDSLAVSLGERATINCKSSQSVLYSSNNKNYLAWYQQKPGQPPKLLIYWASTRESGVPDRFSGSGSGTDFTLTISSLQAEDVAVYYCQQYYSTPQLTFGGRTKVDIKSGGSTITSYNVYYTKLSSSGTQVQLQQSEGGVVQPGRSLRLSCAASGFTFSSYGMNWVRQAPGKGLEWVSYISSSSSTIYYADSVKGRFTISRDNSKNTLYLQMNSLRAEDTAVYYCARGPGMDVWGQGTTVTVSS
Broadly, the Kd is a measure of binding affinity in units of concentration. Consider B2, for which, in assay [2], the Kd is 200 nM. Besides, the “inhibition of formation of C5a” value in assay [3] was “inhibit almost completely”. The “inhibition of formation of TCC” value in assay [4] was “inhibit almost completely”.
